Measured values from US20250134956A1 (published 2025).
Residue numbers refer to the chain shown, from its start.

T1: Kita-kyushu lung cancer antigen 1 (CT83, KKLC1, CXorf61) peptide on HLA-A*02 (human)
T1 peptide: KLVELEHTLL

T2: Kita-kyushu lung cancer antigen 1 (CT83, KKLC1, CXorf61) peptide on HLA-A*02 (human)
T2 peptide: RILVNLSMV

B1: TCR of SEQ ID NOs 10 and 11 (TCR, V domains shown)
Valpha: KQEVTQIPAALSVPEGENLVLNCSFTDSAIYNLQWFRQDPGKGLTSLLLIQSSQREQTSGRLNASLDKSSGRSTLYIAASQPGDSATYLCAVTTQGGSEKLVFGKGTKLTVNP
Vbeta: NAGVTQTPKFQVLKTGQSMTLQCAQDMNHEYMSWYRQDPGMGLRLIHYSVGAGITDQGEVPNGYNVSRSTTEDFPLRLLSAAPSQTSVYFCASSYSDRGYSPLHFGNGTRLTVT
B2: TCR of SEQ ID NOs 14 and 15 (TCR, V domains shown)
Valpha: KQEVTQIPAALSVPEGENLVLNCSFTDSAIYNLQWFRQDPGKGLTSLLLIQSSQREQTSGRLNASLDKSSGRSTLYIAASQPGDSATYLCAVGGEETSGSRLTFGEGTQLTVNP
Vbeta: B1 Vbeta
B3: TCR of SEQ ID NOs 12 and 13 (TCR, V domains shown)
Valpha: KQEVTQIPAALSVPEGENLVLNCSFTDSAIYNLQWFRQDPGKGLTSLLLIQSSQREQTSGRLNASLDKSSGRSTLYIAASQPGDSATYLCAVMEDSGYALNFGKGTSLLVTP
Vbeta: NAGVTQTPKFQVLKTGQSMTLQCAQDMNHEYMSWYRQDPGMGLRLIHYSVGAGITDKGEVPNGYNVSRLNKREFSLRLESAAPSQTSVYFCASSRTGYYGYTFGSGTRLTVV
B4: TCR of SEQ ID NOs 20 and 21 (TCR, V domains shown)
Valpha: KQEVTQIPAALSVPEGENLVLNCSFTDSAIYNLQWFRQDPGKGLTSLLLIQSSQREQTSGRLNASLDKSSGRSTLYIAASQPGDSATYLCAVNELGRLYFGRGTQLTVWP
Vbeta: NAGVTQTPKFQVLKTGQSMTLQCAQDMNHEYMSWYRQDPGMGLRLIHYSVGAGITDQGEVPNGYNVSRSTTEDFPLRLLSAAPSQTSVYFCASSYSGGYTFGSGTRLTVV
B5: TCR of SEQ ID NOs 16 and 17 (TCR, V domains shown)
Valpha: KQEVTQIPAALSVPEGENLVLNCSFTDSAIYNLQWFRQDPGKGLTSLLLIQSSQREQTSGRLNASLDKSSGRSTLYIAASQPGDSATYLCAVSGNTPLVFGKGTRLSVIA
Vbeta: NAGVTQTPKFRVLKTGQSMTLLCAQDMNHEYMYWYRQDPGMGLRLIHYSVGEGTTAKGEVPDGYNVSRLKKQNFLLGLESAAPSQTSVYFCASSYVGNTEAFFGQGTRLTVV
B6: TCR of SEQ ID NOs 18 and 19 (TCR, V domains shown)
Valpha: B5 Valpha with V92P
Vbeta: B5 Vbeta with Y95F, V96L

Molecular target: T1, Kita-kyushu lung cancer antigen 1 …
Assay: binding, other

| binding result | Binder |
| --- | --- |
| recognises | B1 |
| recognises | B2 |
| recognises | B3 |

Molecular target: T2, Kita-kyushu lung cancer antigen 1 …
Assay: binding, other

| binding result | Binder |
| --- | --- |
| recognises | B4 |
| recognises | B5 |
| recognises | B6 |
